The text below walks through data of US20240400708A1.

Residue numbers refer to the chain shown, from its start. Names may count otherwise.

First the molecules themselves.
B1: feline IgG1a mutant ID No. 349: S252Y, S428M, S434F, Q311K (antibody, part only; not given: variable domains and light chain, not shown: another chain or arm of the molecule)
constant: ASTTAPSVFPLAPSCGTTSGATVALACLVLGYFPEPVTVSWNSGALTSGVHTFPAVLQASGLYSLSSMVTVPSSRWLSDTFTCNVAHPPSNTKVDKTVRKTDHPPGPKPCDCPKCPPPEMLGGPSIFIFPPKPKDTLYISRTPEVTCLVVDLGPDDSDVQITWFVDNTQVYTAKTSPREEQFNSTYRVVSVLPILHKDWLKGKEFKCKVNSKSLPSPIERTISKAKGQPHEPQVYVLPPAQEELSRNKVSVTCLIKSFHPPDIAVEWEITGQPEPENNYRTTPPQLDSDGTYFVYSKLSVDRSHWQRGNTYTCSVMHEALHFHHTQKSLTQSPGK
B2: feline IgG1a mutant ID No. 351: S252Y, S428M, S434F, Q311W (antibody, part only; not given: Variable domains, not shown: another chain or arm of the molecule)
constant: B1 constant with K197W
B3: feline IgG1a mutant ID No. 368: S252Y, S434R, L314K (antibody, part only; not given: Variable domains, not shown: another chain or arm of the molecule)
constant: B1 constant with K197Q, L200K, M316S, F322R
B4: feline IgG1a mutant ID No. 360: S252Y, S434R, D312H (antibody, part only; not given: Variable domains, not shown: another chain or arm of the molecule)
constant: B1 constant with K197Q, D198H, M316S, F322R
B5: feline IgG1a mutant ID No. 364: S252Y, S434R, D401R (antibody, part only; not given: Variable domains, not shown: another chain or arm of the molecule)
constant: B1 constant with K197Q, D289R, M316S, F322R
B6: feline IgG1a mutant ID No. 356: S252Y, S428M, S434F, T403R (antibody, part only; not given: Variable domains, not shown: another chain or arm of the molecule)
constant: B1 constant with K197Q, T291R
B7: feline IgG1a mutant ID No. 367: S252Y, S434R, G402R (antibody, part only; not given: Variable domains, not shown: another chain or arm of the molecule)
constant: B1 constant with K197Q, G290R, M316S, F322R
B8: feline IgG1a mutant ID No. 352: S252Y, S428M, S434F, Q311Y (antibody, part only; not given: Variable domains, not shown: another chain or arm of the molecule)
constant: B1 constant with K197Y
B9: feline IgG1a mutant ID No. 370: S252Y, S434R, Q311H (antibody, part only; not given: variable domains and light chain, not shown: another chain or arm of the molecule)
constant: B1 constant with K197H, M316S, F322R
B10: feline IgG1a mutant ID No. 363: S252Y, S434R, D399T (antibody, part only; not given: Variable domains, not shown: another chain or arm of the molecule)
constant: B1 constant with K197Q, D287T, M316S, F322R
B11: feline IgG1a mutant ID No. 362: S252Y, S434R, D399M (antibody, part only; not given: Variable domains, not shown: another chain or arm of the molecule)
constant: B1 constant with K197Q, D287M, M316S, F322R
B12: feline IgG1a mutant ID No. 355: S252Y, S428M, S434F, T256M (antibody, part only; not given: variable domains and light chain, not shown: another chain or arm of the molecule)
constant: B1 constant with T142M, K197Q
B13: feline IgG1a mutant ID No. 371: S252Y, S434R, Q311K (antibody, part only; not given: Variable domains, not shown: another chain or arm of the molecule)
constant: B1 constant with M316S, F322R
B14: feline IgG1a mutant ID No. 359: S252Y, S434R, D312A (antibody, part only; not given: variable domains and light chain, not shown: another chain or arm of the molecule)
constant: B1 constant with K197Q, D198A, M316S, F322R
B15: feline IgG1a mutant ID No. 369: S252Y, S434R, P247L (antibody, part only; not given: Variable domains, not shown: another chain or arm of the molecule)
constant: B1 constant with P133L, K197Q, M316S, F322R
B16: feline IgG1a mutant ID No. 361: S252Y, S434R, D312P (antibody, part only; not given: Variable domains, not shown: another chain or arm of the molecule)
constant: B1 constant with K197Q, D198P, M316S, F322R
B17: feline IgG1a mutant ID No. 354: S252Y, S428M, S434F, T250Q (antibody, part only; not given: variable domains and light chain, not shown: another chain or arm of the molecule)
constant: B1 constant with T136Q, K197Q

The first test concerns the target feline FcRn complex (FcRn-α subunit and β-microglobulin) (feline). Kind of test: SPR (Biacore), FcRn on SA chip, pH 7.4.
The molecule B1 came in with a Kd of 4.78 nM. This counts as single-digit nanomolar.

Molecule B2 showed a Kd of 3.35 nM.

In turn, B3 came in with a Kd of 25.6 nM.

B4 returned a Kd of 43.1 nM.

B5: the dissociation constant (Kd) was 24.4 nM. This Kd lies about 1.8-fold lower than the previous one.

B6 showed a dissociation constant Kd of 9.98 nM.

On to B7, for which the Kd was 44.8 nM.

As for B8, the Kd turned out to be 6.48 nM.

Take B9: the Kd stood at 31.3 nM. This Kd is about 4.8-fold higher than that of the molecule before.

In turn, B10 displayed a Kd of 38.9 nM.

As to B11, the Kd is 43.6 nM.

In turn, B12 had a Kd of 15.7 nM.

Turning to B13, the Kd was 10.7 nM.

B14 registered a Kd of 25.3 nM.

Turning to B15, the dissociation constant (Kd) was determined as 26.5 nM.

Molecule B16 gave a Kd of 20.7 nM.

Take B17: the Kd came out at 4.46 nM.

For the next test the target is unchanged. Briefly: SPR (Biacore), FcRn on SA chip, pH 6. A general note: In SPR one partner is held on a chip, and binding of the other changes the refractive index at the surface.
B1: the Kd was 0.0192 nM.

B2 had a Kd of 0.011 nM. This Kd lies about 1.7-fold lower than the previous one.

For B3, the equilibrium dissociation constant (Kd) came to 1.3 nM.

In turn, B4 gave a Kd of 1.09 nM.

B5: the Kd amounted to 0.732 nM.

In turn, B6 came in with a Kd of 0.0249 nM.

Regarding B7, the Kd came to 0.885 nM. Compared with the last molecule, the Kd is about 36-fold higher.

In the case of B8, the dissociation constant (Kd) is 0.0271 nM.

B9: the Kd is 0.974 nM.

Take B10: the Kd amounted to 0.923 nM. The Kd values of the last two molecules are within 1.5-fold of each other.

In the case of B11, the Kd was determined as 1.14 nM.

In turn, B12 showed a Kd of 0.0964 nM.

With B13, the Kd turned out to be 0.488 nM.

Molecule B14 gave a Kd of 0.626 nM.

As to B15, the Kd stood at 0.442 nM.

On to B16, for which the Kd came out at 0.188 nM.

The molecule B17 yielded a Kd of 0.0192 nM.

In general, Kd refers to the equilibrium constant for the complex coming apart.
